This note sets out measurements from patent publication US20110091994A1, “Methods for Screening Compounds for Treating and/or Preventing an Hepatitis C Virus Infection” (priority 2008, published 2011).

Test [1] addresses T1, HCV ORFs (Gal4-DB fusions) (Hepatitis C virus genotype 1b, UniProt Q9WMX2).
T1 construct: expressed in transfected cells; host or cells: Saccharomyces cerevisiae MAV203 (IMAP1) / AH109 (IMAP2)
Format: binding, HCV genotype 1b, isolate con1. As to conditions: HCV protein NS3 as bait; human protein as prey.

Test [2] deals with HCV ORFs (Gal4-DB fusions). The class given is binding, HCV genotype 1b, isolate con1. To be noted: human protein listed by gene symbol; the value names the HCV protein it interacts with.
Test [3] has as its target T2, HCV proteins (Hepatitis C virus genotype 1b, UniProt Q9WMX2).
T2 construct: expressed in transfected cells
Nature of the test: Validation by Y2H pairwise matrices.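 Also: yeast two-hybrid pairwise tests of interactions first found in Y2H screens of HCV bait proteins against human cDNA libraries.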 The class given is binding. As to conditions: validation of interaction with HCV protein NS3.
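For IMAP Y2H IMAP1 (number of IST) in this document: yeast two-hybrid screens using HCV genotype 1b proteins fused to Gal4-DB as baits against prey cDNA libraries from human spleen and foetal brain, IMAP1 via transformation and IMAP2 via mating.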
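For IMAP Y2H IMAP2 (number of IST) in this document: yeast two-hybrid screens using HCV genotype 1b proteins fused to Gal4-DB as baits against prey cDNA libraries from human spleen and foetal brain, IMAP1 via transformation and IMAP2 via mating.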
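For Interaction with viral protein in this document: yeast two-hybrid screens using HCV genotype 1b proteins fused to Gal4-DB as baits against prey cDNA libraries from human spleen and foetal brain, IMAP1 via transformation and IMAP2 via mating.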

T2 sequence (Q9WMX2 1027-1657): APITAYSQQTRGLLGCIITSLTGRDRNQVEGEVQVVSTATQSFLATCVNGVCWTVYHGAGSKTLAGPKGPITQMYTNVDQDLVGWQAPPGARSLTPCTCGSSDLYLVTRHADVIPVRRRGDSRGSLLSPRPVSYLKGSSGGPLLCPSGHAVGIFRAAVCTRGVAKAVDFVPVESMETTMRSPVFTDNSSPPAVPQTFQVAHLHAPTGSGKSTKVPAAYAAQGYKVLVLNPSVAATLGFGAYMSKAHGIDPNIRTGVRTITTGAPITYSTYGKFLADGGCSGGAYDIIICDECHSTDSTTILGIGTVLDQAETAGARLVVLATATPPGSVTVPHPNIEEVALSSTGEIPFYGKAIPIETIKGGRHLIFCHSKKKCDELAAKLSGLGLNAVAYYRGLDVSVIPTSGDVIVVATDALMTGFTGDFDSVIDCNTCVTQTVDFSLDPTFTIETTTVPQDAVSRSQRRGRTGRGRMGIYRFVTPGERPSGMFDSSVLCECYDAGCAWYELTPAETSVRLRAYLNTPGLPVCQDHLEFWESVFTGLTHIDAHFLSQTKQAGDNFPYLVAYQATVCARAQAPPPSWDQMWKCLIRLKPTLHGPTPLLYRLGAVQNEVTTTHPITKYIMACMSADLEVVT
T1 sequence (Q9WMX2 1027-1657): as above

B1: HOMER3 (protein, UniProt Q9NSC5 1-361, looked up)
Homer protein homolog 3: MSTAREQPIFSTRAHVFQIDPATKRNWIPAGKHALTVSYFYDATRNVYRIISIGGAKAIINSTVTPNMTFTKTSQKFGQWADSRANTVYGLGFASEQHLTQFAEKFQEVKEAARLAREKSQDGGELTSPALGLASHQVPPSPLVSANGPGEEKLFRSQSADAPGPTERERLKKMLSEGSVGEVQWEAEFFALQDSNNKLAGALREANAAAAQWRQQLEAQRAEAERLRQRVAELEAQAASEVTPTGEKEGLGQGQSLEQLEALVQTKDQEIQTLKSQTGGPREALEAAEREETQQKVQDLETRNAELEHQLRAMERSLEEARAERERARAEVGRAAQLLDVSLFELSELREGLARLAEAAP
Regarding B1, in test [1], the “IMAP Y2H IMAP1 (number of IST)” value was 4 and the “IMAP Y2H IMAP2 (number of IST)” value amounted to 1. In addition, the “Interaction with viral protein” value in test [2] is given as “NS3”. In addition, the Y2H matrices entry in test [3] is “+”.

B2: GNB2 (protein, UniProt P62879 2-340, looked up)
Guanine nucleotide-binding …: SELEQLRQEAEQLRNQIRDARKACGDSTLTQITAGLDPVGRIQMRTRRTLRGHLAKIYAMHWGTDSRLLVSASQDGKLIIWDSYTTNKVHAIPLRSSWVMTCAYAPSGNFVACGGLDNICSIYSLKTREGNVRVSRELPGHTGYLSCCRFLDDNQIITSSGDTTCALWDIETGQQTVGFAGHSGDVMSLSLAPDGRTFVSGACDASIKLWDVRDSMCRQTFIGHESDINAVAFFPNGYAFTTGSDDATCRLFDLRADQELLMYSHDNIICGITSVAFSRSGRLLLAGYDDFNCNIWDAMKGDRAGVLAGHDNRVSCLGVTDDGMAVATGSWDSFLKIWN
Take B2: the “IMAP Y2H IMAP1 (number of IST)” value in test [1] turned out to be 1. In addition, in test [2], the “Interaction with viral protein” value is on record as “NS3”. In addition, in test [3], the Y2H matrices result is “+”.

B3: IQWD1 (protein, UniProt Q58WW2 1-860, looked up)
DDB1- and CUL4-associated …: MSRGGSYPHLLWDVRKRSLGLEDPSRLRSRYLGRREFIQRLKLEATLNVHDGCVNTICWNDTGEYILSGSDDTKLVISNPYSRKVLTTIRSGHRANIFSAKFLPCTNDKQIVSCSGDGVIFYTNVEQDAETNRQCQFTCHYGTTYEIMTVPNDPYTFLSCGEDGTVRWFDTRIKTSCTKEDCKDDILINCRRAATSVAICPPIPYYLAVGCSDSSVRIYDRRMLGTRATGNYAGRGTTGMVARFIPSHLNNKSCRVTSLCYSEDGQEILVSYSSDYIYLFDPKDDTARELKTPSAEERREELRQPPVKRLRLRGDWSDTGPRARPESERERDGEQSPNVSLMQRMSDMLSRWFEEASEVAQSNRGRGRSRPRGGTSQSDISTLPTVPSSPDLEVSETAMEVDTPAEQFLQPSTSSTMSAQAHSTSSPTESPHSTPLLSSPDSEQRQSVEASGHHTHHQSDNNNEKLSPKPGTGEPVLSLHYSTEGTTTSTIKLNFTDEWSSIASSSRGIGSHCKSEGQEESFVPQSSVQPPEGDSETKAPEESSEDVTKYQEGVSAENPVENHINITQSDKFTAKPLDSNSGERNDLNLDRSCGVPEESASSEKAKEPETSDQTSTESATNENNTNPEPQFQTEATGPSAHEETSTRDSALQDTDDSDDDPVLIPGARYRAGPGDRRSAVARIQEFFRRRKERKEMEELDTLNIRRPLVKMVYKGHRNSRTMIKEANFWGANFVMSGSDCGHIFIWDRHTAEHLMLLEADNHVVNCLQPHPFDPILASSGIDYDIKIWSPLEESRIFNRKLADEVITRNELMLEETRNTITVPASFMLRMLASLNHIRADRLEGDRSEGSGQENENEDEE
For B3, in test [1], the “IMAP Y2H IMAP1 (number of IST)” value came to 2. In test [2], the “Interaction with viral protein” value is given as “NS3”. Also, in test [3], the Y2H matrices entry was “+”.
